Experimental data published in the supplement of paper PMC11246515.
± gives the standard deviation of the averaged measurements.

Assay: total protein half-life in vivo (active degradation + dilution); higher = more stable protein
[1] = E. coli NCM3722 delta-clpP delta-lon delta-hslV, growth: N-lim chemostat, doubling time 6 h
[2] = E. coli NCM3722 delta-clpP, growth: N-lim chemostat, doubling time 6 h
[3] = E. coli NCM3722 delta-hslV, growth: N-lim chemostat, doubling time 6 h
[4] = E. coli NCM3722 delta-lon, growth: N-lim chemostat, doubling time 6 h
[5] = E. coli NCM3722 delta-smpB, growth: N-lim chemostat, doubling time 6 h
[6] = wild type E. coli NCM3722, growth: C-lim chemostat, doubling time 3 h
[7] = wild type E. coli NCM3722, growth: C-lim chemostat, doubling time 6 h
[8] = wild type E. coli NCM3722, growth: C-lim chemostat, doubling time 12 h
[9] = wild type E. coli NCM3722, growth: N-lim chemostat, doubling time 6 h
[10] = wild type E. coli NCM3722, growth: N-lim chemostat, doubling time 12 h
[11] = wild type E. coli NCM3722, growth: P-lim chemostat, doubling time 6 h
[12] = wild type E. coli NCM3722, growth: P-lim chemostat, doubling time 12 h

Sequence	total protein half-life in vivo [1] [h]	total protein half-life in vivo [2] [h]	total protein half-life in vivo [3] [h]	total protein half-life in vivo [4] [h]	total protein half-life in vivo [5] [h]	total protein half-life in vivo [6] [h]	total protein half-life in vivo [7] [h]	total protein half-life in vivo [8] [h]	total protein half-life in vivo [9] [h]	total protein half-life in vivo [10] [h]	total protein half-life in vivo [11] [h]	total protein half-life in vivo [12] [h]
MSETKNELEDLLEKAATEPAHRPAFFRTLLESTVWVPGTAAQGEAVVEDSALDLQHWEKEDGTSVIPFFTSLEALQQAVEDEQAFVVMPVRTLFEMTLGETLFLNAKLPTGKEFMPREISLLIGEEGNPLSSQEILEGGESLILSEVAEPPAQMIDSLTTLFKTIKPVKRAFICSIKENEEAQPNLLIGIEADGDIEEIIQATGSVATDTLPGDEPIDICQVKKGEKGISHFITEHIAPFYERRWGGFLRDFKQNRII [P0AFZ1]	3.64	3.49 ± 0.42	2.73	3.96 ± 0.78	2.39 ± 0.091	2.44	4.53 ± 0.38	6.76 ± 0.27	2.81	4.38	3.65	7.61
MSFATISVIGLGYIGLPTAAAFASRQKQVIGVDINQHAVDTINRGEIHIVEPDLASVVKTAVEGGFLRASTTPVEADAWLIAVPTPFKGDHEPDMTYVESAARSIAPVLKKGALVILESTSPVGSTEKMAEWLAEMRPDLTFPQQVGEQADVNIAYCPERVLPGQVMVELIKNDRVIGGMTPVCSARASELYKIFLEGECVVTNSRTAEMCKLTENSFRDVNIAFANELSLICADQGINVWELIRLANRHPRVNILQPGPGVGGHCIAVDPWFIVAQNPQQARLIRTAREVNDHKPFWVIDQVKAAVADCLAATDKRASELKIACFGLAFKPNIDDLRESPAMEIAELIAQWHSGETLVVEPNIHQLPKKLTGLCTLAQLDEALATADVLVMLVDHSQFKVINGDNVHQQYVVDAKGVWR	5.3 ± 0.14	–	5.1 ± 0.76	4.6415 ± 0.0014	4.11 ± 0.081	2.91 ± 0.71	7.21 ± 1.1	9.93 ± 3	5 ± 0.43	8.104 ± 0.048	5.77 ± 0.07	12.5 ± 1.5
MSFDPTGYTLAHEHLHIDLSGFKNNVDCRLDQYAFICQEMNDLMTRGVRNVIEMTNRYMGRNAQFMLDVMRETGINVVACTGYYQDAFFPEHVATRSVQELAQEMVDEIEQGIDGTELKAGIIAEIGTSEGKITPLEEKVFIAAALAHNQTGRPISTHTSFSTMGLEQLALLQAHGVDLSRVTVGHCDLKDNLDNILKMIDLGAYVQFDTIGKNSYYPDEKRIAMLHALRDRGLLNRVMLSMDITRRSHLKANGGYGYDYLLTTFIPQLRQSGFSQADVDVMLRENPSQFFQ	4.42	–	–	6.12	3.08 ± 0.51	–	–	9.94	4.97	–	–	15.1
MSFLLPIQLFKILADETRLGIVLLLSELGELCVCDLCTALDQSQPKISRHLALLRESGLLLDRKQGKWVHYRLSPHIPAWAAKIIDEAWRCEQEKVQAIVRNLARQNCSGDSKNICS	6.03	5.66	–	5.43	5.01 ± 0.46	2.68	–	–	4.89	9.59	5.5	9.37
MSFNTIIDWNSCTAEQQRQLLMRPAISASESITRTVNDILDNVKARGDEALREYSAKFDKTTVTALKVSAEEIAAASERLSDELKQAMAVAVKNIETFHTAQKLPPVDVETQPGVRCQQVTRPVASVGLYIPGGSAPLFSTVLMLATPASIAGCKKVVLCSPPPIADEILYAAQLCGVQDVFNVGGAQAIAALAFGTESVPKVDKIFGPGNAFVTEAKRQVSQRLDGAAIDMPAGPSEVLVIADSGATPDFVASDLLSQAEHGPDSQVILLTPAADMARRVAEAVERQLAELPRAETARQALNASRLIVTKDLAQCVEISNQYGPEHLIIQTRNARELVDSITSAGSVFLGDWSPESAGDYASGTNHVLPTYGYTATCSSLGLADFQKRMTVQELSKEGFSALASTIETLAAAERLTAHKNAVTLRVNALKEQA	4.6 ± 0.29	4.43 ± 0.94	3.96 ± 0.073	4.89 ± 0.47	4.3 ± 0.25	3.3 ± 0.18	5.97 ± 0.23	10.8 ± 1.1	4.23 ± 0.25	6.67 ± 0.38	5.595 ± 0.053	11.9 ± 0.35
MSFSCPLCHQPLSREKNSYICPQRHQFDMAKEGYVNLLPVQHKRSRDPGDSAEMMQARRAFLDAGHYQPLRDAIVAQLRERLDDKATAVLDIGCGEGYYTHAFADALPEITTFGLDVSKVAIKAAAKRYPQVTFCVASSHRLPFSDTSMDAIIRIYAPCKAEELARVVKPGGWVITATPGPRHLMELKGLIYNEVHLHAPHAEQLEGFTLQQSAELCYPMRLRGDEAVALLQMTPFAWRAKPEVWQTLAAKEVFDCQTDFNIHLWQRSY	6.07 ± 0.81	4.95 ± 0.29	4.97	4.9 ± 0.089	4.28 ± 0.53	2.57	5.6	10.8 ± 0.77	5.34 ± 0.44	9.24 ± 0.73	5.78 ± 0.22	13.5 ± 2.7
MSFSVDVLANIAIELQRGIGHQDRFQRLITTLRQVLECDASALLRYDSRQFIPLAIDGLAKDVLGRRFALEGHPRLEAIARAGDVVRFPADSELPDPYDGLIPGQESLKVHACVGLPLFAGQNLIGALTLDGMQPDQFDVFSDEELRLIAALAAGALSNALLIEQLESQNMLPGDATPFEAVKQTQMIGLSPGMTQLKKEIEIVAASDLNVLISGETGTGKELVAKAIHEASPRAVNPLVYLNCAALPESVAESELFGHVKGAFTGAISNRSGKFEMADNGTLFLDEIGELSLALQAKLLRVLQYGDIQRVGDDRCLRVDVRVLAATNRDLREEVLAGRFRADLFHRLSVFPLSVPPLRERGDDVILLAGYFCEQCRLRQGLSRVVLSAGARNLLQHYSFPGNVRELEHAIHRAVVLARATRSGDEVILEAQHFAFPEVTLPTPEVAAVPVVKQNLREATEAFQRETIRQALAQNHHNWAACARMLETDVANLHRLAKRLGLKD	–	–	–	4.32	3.19 ± 0.46	2.33	–	7.42 ± 0.3	3.76	5.2 ± 0.5	–	7.35 ± 0.38
MSFTRRKFVLGMGTVIFFTGSASSLLANTRQEKEVRYAMIHDESRCNGCNICARACRKTNHVPAQGSRLSIAHIPVTDNDNETQYHFFRQSCQHCEDAPCIDVCPTGASWRDEQGIVRVEKSQCIGCSYCIGACPYQVRYLNPVTKVADKCDFCAESRLAKGFPPICVSACPEHALIFGREDSPEIQAWLQQNKYYQYQLPGAGKPHLYRRFGQHLIKKENV	4.71 ± 0.073	–	–	–	–	–	–	–	–	–	–	15.8
MSFVVIIPARYASTRLPGKPLVDINGKPMIVHVLERARESGAERIIVATDHEDVARAVEAAGGEVCMTRADHQSGTERLAEVVEKCAFSDDTVIVNVQGDEPMIPATIIRQVADNLAQRQVGMATLAVPIHNAEEAFNPNAVKVVLDAEGYALYFSRATIPWDRDRFAEGLETVGDNFLRHLGIYGYRAGFIRRYVNWQPSPLEHIEMLEQLRVLWYGEKIHVAVAQEVPGTGVDTPEDLERVRAEMR	4.88 ± 0.51	4.7 ± 0.29	4.68 ± 0.45	4.949 ± 0.04	4.68 ± 0.18	2.84 ± 0.45	6.6 ± 0.59	10.8 ± 0.44	4.72 ± 0.32	7.79 ± 0.56	5.81 ± 0.29	12.6 ± 0.66
MSGFYHKHFLKLLDFTPAELNSLLQLAAKLKADKKSGKEEAKLTGKNIALIFEKDSTRTRCSFEVAAYDQGARVTYLGPSGSQIGHKESIKDTARVLGRMYDGIQYRGYGQEIVETLAEYASVPVWNGLTNEFHPTQLLADLLTMQEHLPGKAFNEMTLVYAGDARNNMGNSMLEAAALTGLDLRLVAPQACWPEAALVTECRALAQQNGGNITLTEDVAKGVEGADFIYTDVWVSMGEAKEKWAERIALLREYQVNSKMMQLTGNPEVKFLHCLPAFHDDQTTLGKKMAEEFGLHGGMEVTDEVFESAASIVFDQAENRMHTIKAVMVATLSK	3.57 ± 0.61	2.14 ± 0.064	2.09 ± 0.27	2.62 ± 0.044	2.52 ± 0.042	2.9 ± 0.032	4.71 ± 0.28	7.42 ± 1.9	2.52 ± 0.23	3.48 ± 0.63	5.11 ± 0.34	8.84 ± 0.35
MSGSNTAISRRRLLQGAGAMWLLSVSQVSLAAVSQVVAVRVWPASSYTRVTVESNRQLKYKQFALSNPERVVVDIEDVNLNSVLKGMAAQIRADDPFIKSARVGQFDPQTVRMVFELKQNVKPQLFALAPVAGFKERLVMDLYPANAQDMQDPLLALLEDYNKGDLEKQVPPAQSGPQPGKAGRDRPIVIMLDPGHGGEDSGAVGKYKTREKDVVLQIARRLRSLIEKEGNMKVYMTRNEDIFIPLQVRVAKAQKQRADLFVSIHADAFTSRQPSGSSVFALSTKGATSTAAKYLAQTQNASDLIGGVSKSGDRYVDHTMFDMVQSLTIADSLKFGKAVLNKLGKINKLHKNQVEQAGFAVLKAPDIPSILVETAFISNVEEERKLKTATFQQEVAESILAGIKAYFADGATLARRG	4.83 ± 0.39	5.68 ± 1.5	5.1 ± 0.2	5.12 ± 0.18	4.18 ± 0.3	2.74 ± 0.23	4.852 ± 0.02	9.06 ± 0.98	5.19 ± 1.1	8.626 ± 0.061	5.29 ± 0.18	10.4 ± 0.28
MSGTLLAFDFGTKSIGVAVGQRITGTARPLPAIKAQDGTPDWNIIERLLKEWQPDEIIVGLPLNMDGTEQPLTARARKFANRIHGRFGVEVKLHDERLSTVEARSGLFEQGGYRALNKGKVDSASAVIILESYFEQGY [P0A8I1]	4.82 ± 0.066	4.88	3.57 ± 0.011	4.27 ± 0.32	3.5663 ± 0.00095	2.88 ± 0.18	5.4 ± 0.77	10.2 ± 0.33	3.8577 ± 0.0028	7.41 ± 2.2	4.95 ± 0.11	8.63 ± 2.5
MSGWPRIYYKLLNLPLSILVKSKSIPADPAPELGLDTSRPIMYVLPYNSKADLLTLRAQCLAHDLPDPLEPLEIDGTLLPRYVFIHGGPRVFTYYTPKEESIKLFHDYLDLHRSNPNLDVQMVPVSVMFGRAPGREKGEVNPPLRMLNGVQKFFAVLWLGRDSFVRFSPSVSLRRMADEHGTDKTIAQKLARVARMHFARQRLAAVGPRLPARQDLFNKLLASRAIAKAVEDEARSKKISHEKAQQNAIALMEEIAANFSYEMIRLTDRILGFTWNRLYQGINVHNAERVRQLAHDGHELVYVPCHRSHMDYLLLSYVLYHQGLVPPHIAAGINLNFWPAGPIFRRLGAFFIRRTFKGNKLYSTVFREYLGELFSRGYSVEYFVEGGRSRTGRLLDPKTGTLSMTIQAMLRGGTRPITLIPIYIGYEHVMEVGTYAKELRGATKEKESLPQMLRGLSKLRNLGQGYVNFGEPMPLMTYLNQHVPDWRESIDPIEAVRPAWLTPTVNNIAADLMVRINNAGAANAMNLCCTALLASRQRSLTREQLTEQLNCYLDLMRNVPYSTDSTVPSASASELIDHALQMNKFEVEKDTIGDIIILPREQAVLMTYYRNNIAHMLVLPSLMAAIVTQHRHISRDVLMEHVNVLYPMLKAELFLRWDRDELPDVIDALANEMQRQGLITLQDDELHINPAHSRTLQLLAAGARETLQRYAITFWLLSANPSINRGTLEKESRTVAQRLSVLHGINAPEFFDKAVFSSLVLTLRDEGYISDSGDAEPAETMKVYQLLAELITSDVRLTIESATQGEG [P0A7A7]	–	7.2 ± 0.25	6.63 ± 0.61	6.38 ± 0.65	6.36 ± 0.2	3.37 ± 0.17	6.4 ± 0.11	12.2 ± 1.3	6.249 ± 0.032	13.3 ± 0.35	6.79 ± 0.28	13.4 ± 1.5
MSHHHEGCCKHEGQPRHEGCCKGEKSEHEHCGHGHQHEHGQCCGGRHGRGGGRRQRFFGHGELRLVILDILSRDDSHGYELIKAIENLTQGNYTPSPGVIYPTLDFLQEQSLITIREEEGGKKQIALTEQGAQWLEENREQVEMIEERIKARCVGAALRQNPQMKRALDNFKAVLDLRVNQSDISDAQIKKIIAVIDRAAFDITQLD	4.91 ± 0.66	–	3.22 ± 0.047	4.273 ± 0.011	3.33 ± 0.41	2.55 ± 0.029	4.67 ± 0.56	8.76 ± 2.2	3.65 ± 0.74	5.05 ± 0.53	4.8 ± 0.27	8.64 ± 0.59
